Type in all cases: biochemical, Quillaja saponaria
Test [1] in a line: Experiment 6-1: screening of rhamnosidases for derhamnosylation of saponins in treated bark extract (2%), QS-17 2296 to QS-18 2150 (PAR %). The following applies: TBE 2%, pH 7.5, 30 degC, 18 h; TIC peak area ratio percent of rhamnosylated starting saponin to derhamnosylated product, LCMS/MS; negative controls 4.876, 5.225.
The nature of test [2]: Experiment 6-1: screening of rhamnosidases for derhamnosylation of saponins in treated bark extract (2%), desglucosyl-QS-17 2134 to QS-21 1988 (PAR %). The following applies: TBE 2%, pH 7.5, 30 degC, 18 h; TIC peak area ratio percent, LCMS/MS; negative controls 2.719, 2.158.
The nature of test [3]: Experiment 6-1: screening of rhamnosidases for derhamnosylation of saponins in treated bark extract (2%), QS-17 2310 to QS-18 2164 (PAR %). The following applies: TBE 2%, pH 7.5, 30 degC, 18 h; TIC peak area ratio percent, LCMS/MS; negative controls 3.061, 2.429.
The nature of test [4]: Experiment 6-2: screening of rhamnosidases for derhamnosylation of saponins in treated bark extract (25%), relative % of Left, Middle and Right Peak by UV HPLC. Conditions: TBE 25%, pH 7.4, 19.5 h; for Left Peak: mainly QS-17 family, negative control 24%; for Middle Peak: mainly QS-18 and desglucosyl-QS-17 family, negative control 50%; for Right Peak: mainly QS-21 family, negative control 26%.

Test [5] is described as follows: Experiment 6-3: screening of rhamnosidases for derhamnosylation of saponins in crude bark extract (80%), relative % of Left, Middle and Right Peak by UV HPLC. The following applies: CBE 80%, pH 7.4, 30 degC, 19.5 h; for Left Peak: mainly QS-17 family, negative control 27%; for Middle Peak: mainly QS-18 and desglucosyl-QS-17 family, negative control 48%; for Right Peak: mainly QS-21 family, negative control 26%. As to the method: Selected variants were expressed and lysed as in the method of experiment 6-1.
Crude bark extract (CBE) solution was adjusted to pH 7.4 by addition of NaOH (2M). 20 uL clarified lysate was transferred into fresh 96 well PCR plates. 80 uL CBE solution (pH 7.4) was added to each well of lysate to a final concentration of 80%. Plates were incubated at 30 degC with shaking for 19.5 h.
Quenched with 100 uL MeCN+2% AcOH and shaken at room temperature for 10 mins prior to centrifugation (10 min, 4 degC) to remove particulates. Samples were analysed by UV HPLC using method of Experiment 4-4.
Three key peaks of interest are apparent using this chromatography: Left Peak (retention time approximately 2.30-2.35 min) comprising mainly QS-17 family components; Middle Peak (retention time approximately 2.37-2.42 min) comprising mainly QS-18 family components and desglucosyl-QS-17 family components; and Right Peak (retention time approximately 2.44-2.50 min) comprising mainly QS-21 family components. Peak identity was supported by MS/MS.
Enzyme mediated hydrolysis of the alpha-O-rhamnosylation at the C2 position of the arabinofuranose moiety of QS-17 family components leads to a decrease in Left Peak and an increase in Middle Peak due to formation of QS-18 family components. Enzyme mediated hydrolysis of the alpha-O-rhamnosylation at the C2 position of the arabinofuranose moiety of desglucosyl-QS-17 family components leads to a decrease in Middle Peak and an increase in Right Peak due to formation of QS-21 family components.
The relative percentage of each peak was determined. A decrease in Left Peak and a concomitant increase in Middle Peak and Right Peak is observed for enzymes active under these conditions.

Test [6] is described as follows: Experiment 6-1: specificity of rhamnosidases towards other rhamnose residues (C3 saccharide rhamnose, C28 saccharide rhamnose). The following applies: TBE 2%, pH 7.5, 30 degC, 18 h; LCMS/MS; negative controls 0.18, 0.17.

B1: 1041 (protein)
chain: MRAIRLRTEYLTEPLGLGITAPRLYWNADGGLRQTAYQVVARRGGETVWDTGKVASSRMTHVRYEGVPLGSRDRVDWSVVLWDEAGAAGPPAESWFELGLLDPADWTAEWITGDYTPEPDVRYPVDHFRRDFRVREPVLAARLYITAAGVYEAVLNGEPVSEARLGPGATDYRHRLHYQTFDVTSLLAADNVLEVRLADGWYRGSLGAFGATHVFGRETRLLAQLELTYPDGSTETVGSDERFRWSDDGPVRFADLQDGEVYDARLAPSYSGHARITTETMIPTAADNVPVTEHERFPARLLTTPSGARVLDFGQNLAGFVAFTVSGRAGQRLTLRLGEILDGAGEFTQRNFQLRKPVHEFGRDVEILLLTGQESEIKGELQPTPKQEVVFTASGGTDHYVTRFAVFGFRYALVETDLDIDPADFEAIAVYSAMEQTGTCVTSHEGVNRFLENTRWSMKGNFLDVPTDCPTRERLGWTGDAQVFFDTAAYLMDVGAFFRKWLRDVRDGQLADGKLSAVIPYNGTSMLYDTTGGSVGWADAVVLIPYRYWKRYGDESILRDCYDAMRRYAMFMITNAGPLDPEAAADNPHARYLYEKGVHLGDWLEAAEFRDPSPGRTPMPEEATAYLHYTMTHLAEIATVLGETADADLFAEYAQGAKAAYTHQFLRDGTLDTDRQAKLVRPLALGLADGDVKRRLEDRLVQAVKNRDFHVNTGFLSTPFVLPTLTAAGHPEIAYRMLDNEDAPSWLAEVKAGATTVWEDWEGKESRNHYSPGAVCQWLFDTVAGLRVTGENHFTIAPVPGGSLTSAQARYTSVYGTVASSWTRTGTDLHLTVTLPPNTTADVRLPNGTEHVVGPGTHEYTA
modifications: Frankia inefficax
On to B1, for which, in test [1], the “QS-17 (PAR %)” value turned out to be 0.507%. Besides, the “Peak75 (PAR %)” value in test [2] is on record as 0.000%. Besides, the “Peak57 (PAR %)” value in test [3] came out at 0.000%. For the same molecule, in test [4], the “Left Peak” value turned out to be 15%, the “Middle Peak” value was determined as 55% and the “Right Peak” value is given as 30%. Moreover, in test [5], the “Left Peak” value is on record as 25%, the “Middle Peak” value came to 48% and the “Right Peak” value came to 27%. Also, the “ratio PP/QS-21” value in test [6] turned out to be 0.16.

B2: 989 (protein, listed as Rhodothermus marinus)
chain: MVLLFLGGAKEGAAQSNQALQVASLRTEYLVNPIGIEVRQPRLSWQLQSDRRDVRQVAYQIQVATSREALARGRDLVWDSGRVESDQSVFVPYGGPALQRRQRYYWRVRVWDNHGRSSAWSEPAFWEMGLLSPDEWRAQWITYNWEEDTSQPQPAPMLRRTFRVEGRVRRARLYITSLGLYEAHLNGRRVGDQLFTPGWTSYHHRLQYQTYDVTDLLRPGENALGVILGDGWYRGYLTWSVRRNVYGDRLALLAQLEITYEDGRTQVVTSDPDWKATTGPIRMSDIYMGEIYDARLEKEGWTEPGYDDSDWRGVRVLEHPKDILIAPIGPPVRRIQEIRPVAILYTPAGDTVVDMGQNMVGWVRLRVRGPAGTVVTLRHAEVLDKHGNFYTENLRRARQTDQYILKGEGEEVFEPHFTFHGFRYVAVSGYPGELTPEAITGIVIHSAFEPTGTWVSSDSLLNRLQLNIQWGMKGNFLDVPTDCPQRDERLGWTGDAQVFARTAMFNGLVGGFFTKWLGDVAADQSPEGAVPHVVPNVLPSFAGRFPGGATGWADAAVVIPWTMYQVYGDRRILEVQYPSMKAWVEYMRREAGDDLIWDTGFHFGDWLAFVPEENVRRAYPGATTGRDFLATAYFAYSTRLLAQAAEVIGKTDEARHYRQLYEAIREAFNREFVTPNGRVAQATQTAYTLAIQFDLLPEHLRAEAGRRLAEDVRAHNMHLTTGFLGTPQLLHALSNTGQLDVAYTLLRQTTYPSWLYQVKMGATTMWERWDSIKPDSTFQDPSMNSFNHYAYGSVGDWMYRVVAGIDTETPGYQRLRIAPQPGGGLKWVQARYHSLYGEVASSWELVDPQTFVLEVTIPPNTTATVRLPGAQLASVQEGRQPVQSAAGVHRAYQDGADVVVEVGSGTYRFTYSPSAELVRRIQTQPEVGQPVTMSF
Turning to B2, in test [1], the “QS-17 (PAR %)” value was determined as 0.516%. Also, in test [2], the “Peak75 (PAR %)” value turned out to be 0.478%. In addition, the “Peak57 (PAR %)” value in test [3] was determined as 0.305%. In test [4], the “Left Peak” value is 19%, the “Middle Peak” value is reported as 54% and the “Right Peak” value amounted to 26%. Moreover, in test [5], the “Left Peak” value is given as 29%, the “Middle Peak” value was 43% and the “Right Peak” value worked out at 27%. Moreover, the “ratio PP/QS-21” value in test [6] was 0.18.

The values above are taken from patent US20240026407A1, “MODIFICATION OF SAPONINS” (GLAXOSMITHKLINE BIOLOGICALS SA, priority 2020, published 2024).
